Results published in patent publication US20230064978A1, “CYCLIC PEPTIDE RECEPTOR LANTHIONINE SYNTHETASE C-LIKE PROTEIN (LANCL) AND USES THEREOF” (LATERAL IP PTY LTD, priority 2019, published 2023).
Bridges are numbered along the chain shown (N, C = ends). Where no end group is shown, it is not given here.

Columns and labels:
human recombinant LANCL1 = target: T1, human recombinant LANCL1 (Homo sapiens, UniProt O43813); assay: In-gel fluorescence: photolabelling of recombinant LANCL1 with PAL probes, with or without excess competitor; type: binding
T1 construct: purchased ABCAM ab181923; host or cells: E. coli
Protocol: The in-gel fluorescence protocol can be briefly described as follows:
1. LANCL1 Labelling, Assay on 96 Well Plate, Volume of the Reaction 40 μl in PBS
3 μg/well of human recombinant LANCL1 (ABCAM catalog no. ab181923, 1 mg/ml; expressed in E. Coli and incorporating an N-terminal 23 amino acid hexaHis tag; UniProtKB/Swiss-Prot Accession no: O43813);
• Vehicle DMSO • ±LAT8881 (a cyclic peptide fragment of human growth hormone; SEQ ID NO:1) • SEQ ID NO:1) as competitor @ 25, 50, 100 or 200 μM, pre-incubation 10 min, 4 μl of a stock solution 10-fold concentrated • ±LAT9991-PAL, LAT7771-PAL or LAT9993-PAL probes @ 1 μM, incubation 30 min at room temperature on a plate agitator (protected from light), 4 μl of a stock solution @10 μM
• Irradiation @ 365 nm 20 min (4° C., on a support containing ice) Transfer 40 μl in a clean Eppendorf tube
• Reduction: DTT 10 mM, 30 min @ 56° C. • Alkylation: Iodoacetamide 30 mM, 45 min @ RT Click-iT AzideTamra of 60 μL samples
• Acetone Precipitation −20° C. ON • Dry pellet resuspended in 30 μL 1% SDS in 50 mM Tris-HCl pH 7.5 • Photolabeled LANCL1 was tagged with tetramethylrhodamine (TAMRA) azide @100 μM TAMRA azide by copper click chemistry using the Click-iT Protein Reaction Buffer Kit (ThermoFisher Scientific) during 30 minutes • Precipitation using the chloroform-methanol method, pellet was air-dried for 10 min at room temperature, resuspended in 30 μL SDS loading buffer (Bio Rad's XT Sample Buffer containing 2.5% v/v 2-mercaptoethanol) and heated (60° C., 30 min)
(§1) • SDS-PAGE (4-15% Criterion™ TGX Stain-Free™ Protein Gel, Bio Rad) • Analyzed by in-gel fluorescence scanning using a ChemiDoc™ MP Imaging System (Bio Rad) with a green LED light as an excitation source and a BP600/20 nm emission filter

human recombinant LANCL3 = target: T2, human recombinant LANCL3 (Homo sapiens, UniProt Q6ZV70); assay: In-gel fluorescence: photolabelling of recombinant LANCL3 with PAL probe, with or without excess LAT8881; type: binding
T2 construct: human recombinant LANCL3 (amino acid residues 1-420); 10xHis (N); Myc (C); purchased ABCAM ab163277; host or cells: E. coli
Protocol: An in-gel fluorescence protocol was followed to determine whether the cyclic peptides bound to LANCL2 and LANCL3. Briefly:
1. LANCL2 and LANCL3 Labelling, Assay on 96 Well Plate, Volume of the Reaction 40 μl in PBS
• […] of human recombinant LANCL3 (amino acid residues 1-420; ABCAM catalog no. ab163277, ˜0.07 mg/ml; expressed in E. Coli and incorporating an N-terminal 10×His tag and a C-terminal Mvc tag; UniProt Accession no: Q6ZV70);
• Vehicle DMSO • ±LAT8881 (a cyclic peptide fragment of human growth hormone; SEQ ID NO:1) • SEQ ID NO:1 as competitor @ 50, 100 or 200 μM, pre-incubation 10 min, […], incubation 30 min at room temperature on a plate agitator (protected from light), 4 μl of a stock solution @10 μM
• Irradiation @ 365 nm 20 min (4° C., on a support containing ice) • Transfer 40 μl in a clean Eppendorf tube
• Reduction: DTT 10 mM, 30 min @ 56° C. • Alkylation: Iodoacétamide 30 mM, 45 min @ RT Click-iT AzideTamra of 60 μL samples
• Acetone Precipitation −20° C. ON • Dry pellet resuspended in 30 μL 1% SDS in 50 mM Tris-HCl pH 7.5 • Photolabeled LANCL1 was tagged with tetramethylrhodamine (TAMRA) azide @100 μM TAMRA azide by copper click chemistry using the Click-iT Protein Reaction Buffer Kit (ThermoFisher Scientific) for 30 minutes • Precipitation using the chloroform-methanol method, pellet was air-dried for 10 min at room temperature, resuspended in 30 μL SDS loading buffer (Bio Rad XT Sample Buffer containing 2.5% v/v 2-mercaptoethanol) and heated (60° C., 30 min)
as §1

T2 sequence (Q6ZV70 whole entry, the tested form may be a part): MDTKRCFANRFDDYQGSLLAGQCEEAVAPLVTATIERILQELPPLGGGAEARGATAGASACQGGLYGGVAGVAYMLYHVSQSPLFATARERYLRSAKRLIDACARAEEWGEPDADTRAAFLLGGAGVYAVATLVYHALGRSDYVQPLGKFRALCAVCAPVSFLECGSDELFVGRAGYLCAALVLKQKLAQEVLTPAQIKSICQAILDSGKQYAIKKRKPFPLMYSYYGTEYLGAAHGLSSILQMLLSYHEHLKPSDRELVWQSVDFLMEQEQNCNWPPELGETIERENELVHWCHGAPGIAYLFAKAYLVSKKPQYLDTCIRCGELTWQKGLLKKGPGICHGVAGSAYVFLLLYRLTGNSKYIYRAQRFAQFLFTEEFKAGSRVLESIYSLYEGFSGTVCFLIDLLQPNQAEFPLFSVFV
T1 sequence (O43813 with tags, fused parts or gaps): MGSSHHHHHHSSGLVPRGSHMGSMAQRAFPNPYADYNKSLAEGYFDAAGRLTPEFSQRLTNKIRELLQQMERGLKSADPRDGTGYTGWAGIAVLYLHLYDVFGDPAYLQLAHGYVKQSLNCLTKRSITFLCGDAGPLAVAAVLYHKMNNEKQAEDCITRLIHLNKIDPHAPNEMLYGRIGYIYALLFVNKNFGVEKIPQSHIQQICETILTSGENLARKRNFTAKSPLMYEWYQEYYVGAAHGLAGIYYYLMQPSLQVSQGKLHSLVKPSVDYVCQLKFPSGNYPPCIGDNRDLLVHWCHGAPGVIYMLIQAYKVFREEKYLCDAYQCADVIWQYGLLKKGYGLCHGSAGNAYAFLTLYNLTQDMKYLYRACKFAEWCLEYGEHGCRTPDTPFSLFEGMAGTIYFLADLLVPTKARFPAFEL

## LAT9991-PAL: cyclic peptide of SEQ ID NO:12 (LAT9991) conjugated to the PAL (Photo-Activated Labelling) grouping (CRSVEGSCG; disulfide 1-8 (inferred); also: PAL group on N-terminal Cys-Arg part)
Human recombinant LANCL1; in-gel fluorescence after UV (365 nm) cross-linking
  Binding of PAL probe to recombinant LANCL1: bound to recombinant LANCL1
Human recombinant LANCL3; in-gel fluorescence after UV cross-linking
  Binding of PAL probe to recombinant LANCL3: binds

## YLRIVQCRSVEGSCGF [LAT8881, a cyclic peptide fragment of human growth hormone]
Human recombinant LANCL1; probe LAT7771-PAL, excess LAT8881
  Inhibition of LAT7771-PAL binding to recombinant LANCL1 by excess competitor: inhibited
Human recombinant LANCL1; probe LAT9991-PAL, excess unlabelled competitor
  Inhibition of LAT9991-PAL binding to recombinant LANCL1 by excess competitor: inhibited
Human recombinant LANCL1; probe LAT9993S-PAL, excess LAT8881
  Inhibition of LAT9993S-PAL binding to recombinant LANCL1 by excess competitor: inhibited
Human recombinant LANCL3; probe LAT9991-PAL, excess LAT8881
  Inhibition of LAT9991-PAL binding to LANCL3 by excess competitor: inhibited
Human recombinant LANCL3; probe LAT9993-PAL (as in FIG. 11 legend), excess LAT8881
  Inhibition of LAT9993-PAL binding to recombinant LANCL3 by excess competitor: inhibited
